The values below come from the DeepSol protein solubility set.

The data set in a line: soluble on expression in E. coli; label from the status in PepcDB or PDB records.
Consider “MKGLIIKQPYANWIVEGKKVWEIRKTPTKIRGRVIIISEKKAVGSVEIVDVLGPFTPEELANHENKHLASYDFLKRYANGKKLYAWVLANPEKYDPPIEVKIPNGAQIWVNLKGFVRR”, for which the “soluble on expression in E. coli” value is listed as “soluble”.
As for “MKGNYVQVYVMLPLDAVSVNNRFEKGDELRAQLRKLVEAGVDGVMVDVWWGLVEGKGPKAYDWSAYKQLFELVQKAGLKLQAIMSFHQCGGNVGDAVNIPIPQWVRDVGTRDPDIFYTDGHGTRNIEYLTLGVDNQPLFHGRSAVQMYADYMTSFRENMKDFLDAGVIVDIEVGLGPAGELRYPSYPQSHGWSFPGIGEFICYDKYLQADFKAAAAAVGHPEWEFPNDAGQYNDTPERTQFFRDNGTYLSEKGRFFLAWYSNNLIKHGDRILDEANKVFLGYKVQLAIKIAGVHWWYKVPSHAAELTAGYYNLHDRDGYRTIARMLKRHRASINFTCAEMRDSEQPPDAMSAPEELVQQVLSAGWREGLNVSCENALPRYDPTAYNTILRNARPHGINQSGPPEHKLFGFTYLRLSNQLVEGQNYVNFKTFVDRMHANLPRDPYVDPMAPLPRSGPEISIEMILQAAQPKIQPFPFQEHTDLPVGPTGGMGGQAEGPTCG”, the “soluble on expression in E. coli” value is listed as “soluble”.
Under “MKHMEKFANHFGYNRMFAKDQLTLGVHIPIENYQFHAPTMEKQVELVQKAEQYGFTGVWLRDVLLQDPDFGDPATGQIYDMMIYLTYLASKTEKIAFGTSATVLSLRHPLRVAKEIATLDQLFPERIMLGVSSGDRRADFKALGVSHETRGEKFREAFAYLEEILYKNFPSIQSTLGEVHGANLVPKPSKRVPTFITGFSQQNMEWFAEHGDGWMYYPRSPVHQAGAIGQWRELVEDYHPDVFKPFIQPMHLDLSEDPNERPTPIRLGYRTGRKALIELLDIYKSIGVNHLFLALFDGQRPADEVLDELGEEVLPHFPAL” stands “soluble”; under “MKHWFNIALAALALSSATVQAATEVKVGMSGRYFPFTFVKQDELQGFEVDVWNEIGKRNDYKVEFVTANFSGLLGLLETGRIDTISNQITITDARKAKYLFSDPYVIDGAQITVRKGNEAIKGIDDLAGKTVAVNLGSNFEQLLRNHDKDGKINIKTYDTGIEHDVALGRADAFVMDRLSALELIEKTGLPLQLAGSPFETIENAWPFVNNEKGQQLQGEVNKALAAMRADGTLSQIALKWFGTDISQ”, “not soluble”.
With “MKHYDSMDQELITMPISNAFLKLFSEFVDNYARNGTPSFYHWAKEQNHEVINKFFHELLEIIKSNTETFHDVSIIEHLNATVLLSAKTNPYLLDCWISFITKYNAETNSFTPIGASMHIKVGPEGTPSERIIRELKESLVMTQQAFILAQKANATEVDSLKRQLEQTKQENERLVTQNQFLKDQVRAEKTFADLNPQINNARQQLSALTELIQTLSEITNAKPKIETVSSLSIPVVTENKSELLKENSCSVASVSKEVTPAISQEPKKRPVPPPPNDTDGQALSPNIPPKEDVSIKVTIPSMPKPNSTQPAAKNSGFFSGDGFLKELNAKIKERKERPKDEPHTTPVEKKNL” the entry was “not soluble”.
Consider “MKIAGIDEAGRGPVIGPMVIAAVVVDENSLPKLEELKVRDSKKLTPKRREKLFNEILGVLDDYVILELPPDVIGSREGTLNEFEVENFAKALNSLKVKPDVIYADAADVDEERFARELGERLNFEAEVVAKHKADDIFPVVSAASILAKVTRDRAVEKLKEEYGEIGSGYPSDPRTRAFLENYYREHGEFPPIVRKGWKTLKKIAEKVESEKTQDMINKST”, for which the “soluble on expression in E. coli” value is recorded as “soluble”.
As for “MKIATYNVRVDTEYDQDWQWSFRKEAVCQLINFHDWSLCCIQEVRPNQVRDLKAYTTFTCLSAEREGDGQGEGLAILYNEQKVQAIDTGYFWLSETPQQPSIHPEAGCPRIALWGLFKETTQNTPFLVINVHLDHISAHARLAGMTVILEELHDKIAQYPTLLMGDFNAESGEEVHQLVQKKFQDSKNLATHYGPRGTFQNFTYTKPWAELEEIDYIYVKGWQVQQTASLTDSIDGRFPSDHFPLEAEVCIEER”, the “soluble on expression in E. coli” value is “not soluble”.
Under “MKIAVVTESSANLKAQAVKDYQITVVNDPIMFGNHVYHENVDITTDQFYRLLKVEKEIPTISQISMPEMQVVFDQLQAAGYDQILVIGLSSGISGWINNLKTYAPSVDGIDVRVFDSRTACAGTANMVKLAAAMALADYTLDEIIAQLTRLRAATTTVLIVNSMRHLVKNGRIYNNSSLAGTMVLRNKPIITFNGHGKIQLLGKERTLKNAQQAVQDEFSQFVMNSQLPVRLDVISANDARIAEDWASELRYQFPAVRVKTGVIGPVLGVLTGDHALGMIWSLDWKPLLTTLNQEQKQ” stands “not soluble”.
Under “MKICTMGLGYIGLPTSAMFAKYGTEVVGVDIHQKVVDKLNNGEIHIEEPGLGEVVKEVVANGKFRASLTPEEADAFIISVPTPNHDDEHKSCDLSYVLTATEKVLPFVKKGNVIIVESTIAPRSMDDYVKPLVEEAGFTVGEDIYLVHCPERVLPGQILHELVHNNRIVGGVTPACAEAGARVYGVFVEGEIIKTNAKTAEMSKLMENTFRDVNIALANELTKVCNSLDINVLDVIEMANKHPRVNLHYPGPGVGGHCLAVDPYFIVAKAPELANIIKLSRETNVSMPHYVTEKVKELLAGVENPKVAAFGVTYKGNVDDMRESPAMDVIDLIRNEGITVSAHDPHVESDFFELHSAEEAVKDAHLILVLTDHDEFKTMNYDSLAPYMAKTVVFDTRNCVQAVSTGEMKIINFGTLYEALNKNVMMV” stands “not soluble”; under “MKIGIGSDHGGYNLKREIADFLKKRGYEVIDFGTHGNESVDYPDFGLKVAEAVKSGECDRGIVICGTGLGISIAANKVPGIRAAVCTNSYMARMSREHNDANILALGERVVGLDLALDIVDTWLKAEFQGGRHATRVGKIGEIEKKYSK”, “soluble”; under “MKIKIFIITSLIILTSVSCRRNVFNPSIPNRTQFVEDPIANLSIPSKDAAVEVIPVESIYKTGQTSLIYNWYIHFFDFNGKYYLTARDKCSYDSANKTMIITNNSYYNLLEIDVNDNFYMKEIRTNIDSSIPDDNRIINAFTKIVNGEAYTNADTIFIQDGGKYYSSKNIITWTEISQIPSDASKKEATDQYKIPITAQNGKTYTYVYASGAREFSISRLSDRMKQLAKRLETKFDFKEEDFNNHHMFDIGLNENGSSNPDFRLNPTNYLNNDTNYVYMGATDAAGQLWLLPVKKNGKDYLVRLPEHGGPELYIISDLQNDMNTYQTKAQESLTKALSLAASGGDTSAIEDACYESILNDANYKANKYFLDVIDKMGAKVNFGTTVYATSSKPITHYVIDIVDIQKD”, “not soluble”.
With “MKILAFETSTEACSVALHVDGAVRERFELAPRRHAELALPWAEQLLAEAGISRRQLDAIAVGRGPGAFSGVRLAIGIVQGIALALDLPVLAISTLQVLALRAPAEASHVLACIDARMGEVYAGLFERQGEALLTLGSEVVCAPEAVLLPQSTPQWAGVGTGLAAGEMPLQQRFAGRLSSVDAAALPHAADLLTLALPAALRGEGVAPERVEPAYLRDNVALTLVEQQAARAAKAAAVPR” the entry was “soluble”; with “MKILAISDPHGDYSKMKQIIEKAGDFDLAVVVGDITNFGPDEQVDELAEMFDKPVLAIPGNCDQKTILEALENSKAVNLHGKAEQIGKIRFIGLGGSNPTPFNTPFELSEEEIENALEGMVCSAENSGECGTIVLLTHAPPLGARDELPFGHVGSKAIQKFLDRVDLIVCGHIHEAKGSEKVGKTVVVNPGEACKGSCALIEIEETGNKPIEVEFVEVLEHHHHHH”, “not soluble”; with “MKILALDTSALVAAVAVMEDDRLLAEYMLNHRKTHSQQLVAMIREVLASLELAPKDIDVFAASTGPGSFTGLRIGVTTVKAMAYATGKPVVSVPTLDAIAYNIPMNSFTICPVMDARNNQVYTALYDWDENGQKRITDYMGIPVSELVQLIKDMGKKVIFAGDAAKMHEEYFTQELGDDCKIAPGNLLLQRASSVARLAYLKAMNNELESCFDMVPFYLRKSQAEREYEKKLCKDC”, “not soluble”.
With “MKILNRLATDVGLMLRRPPRQQYAALCYRLSKSNPEPEVLLLTSRDTGRWVIPKGWPMANKKAHAVAEQEAYEEAGVKGTVEKAPFGYYEYEKKLNSGINVPCKVQVHLLEVSEMRDSFPEKDARRLEWVSPREAGKRVNEPELKALMLAFDKRMAHSQ”, the “soluble on expression in E. coli” value is on record as “not soluble”.
